In US9254322B2, “Compositions comprising E-selectin antagonists and uses therefor” (The University of Queensland, priority 2007, dated 2016):

B1: pegylated G-CSF: recombinant human pegylated G-CSF (granulocyte colony stimulating factor), Neulasta from Amgen (protein, UniProt P09919 31-207, looked up)
Granulocyte …: TPLGPASSLPQSFLLKCLEQVRKIQGDGAALQEKLVSECATYKLCHPEELVLLGHSLGIPWAPLSSCPSQALQLAGCLSQLHSGLFLYQGLLQALEGISPELGPTLDTLQLDVADFATTIWQQMEELGMAPALQPTQGAMPAFASAFQRRAGGVLVASHLQSFLEVSYRVLRHLAQP
modifications: PEG (pegfilgrastim)
notes: recombinant human pegylated G-CSF (granulocyte colony stimulating factor), Neulasta from Amgen

Legend:
[1] = system: long-term reconstituting hematopoietic stem cells; experiment: HSC cycling and number in vivo following cytotoxic insult with 5-fluorouracil in wild-type and E-selectin KO mice
Method: Adult mice (10-14 week-old) with homologous deletion of the E-selectin gene were administered intravenously a single dose of 5-FU at 150 mg/kg. At days 2 and 6 following 5-FU, mice were injected intraperitoneally BrdU 100 mg/kg followed by a continuous dose of 1 mg/mL in their drinking water at a concentration of 1 mg/mL. 18 hours following the injection of BrdU. Mice were sacrificed, their bone marrow cells collected as described above and stained with the following combination of antibodies: a) biotinylated antibodies against lineage-specific antigens CD3, CD5, B220/CD45R, CD11b, Gr-1/Ly-6C/G, CD41, Ter119 together with streptavidin conjugated to PercP-Cy5.5; b) fluorescein isothiocyanate (FITC) conjugated anti-CD48; c) phycoerythrin (PE) conjugated anti-CD150; d) PECy7 conjugated anti-Sca-1/Ly-6A/E; f) allophycocyanin (APC) conjugated anti-CD117 antibodies. True hematopoietic stem cells with the phenotype Lineage-negative, Sca1-positive, CD117-positive, CD41-negative, CD48-negative, CD150-positive were counted and sorted as described above. Sorted cells were cytospun on glass slides and stained with anti-BrdU antibodies as described above.

[2] = system: hematopoietic stem and progenitor cells; experiment: Mobilization of HSC with recombinant human pegylated G-CSF in wild-type and E-selectin KO mice; format: in vivo, C57BL/6 mice; details: 3-day course, total 1 mg/kg s.c.
Method: Mobilization was induced in wild-type C57BL/6 mice and in C57BL/6 mice carrying homologous deletion of the E-selectin gene (E-selectin KO mice), using recombinant human G-CSF following a mobilization dosing and protocol similar to that used for human patients.
Adult mice (10- to 14-week old males) were administered recombinant human pegylated G-CSF (granulocyte colony stimulating factor) subcutaneously. Two doses were given 36 hours apart, each at 0.5 mg/kg. The G-CSF used was Neulasta, from Amgen. Neulasta was diluted to 0.1 mg/mL in sterile saline for injection and 100 μL used per injection into 20 g mice. In some experiments, a cohort of ‘control’ mice received saline injections alone.
Blood containing the mobilized HSC, was collected 3 days following the initial G-CSF injection using heparin as anticoagulant (13 units of sodium heparin/mL blood). Four different assays were performed on the blood to determine the extent of HSC mobilization. Some of these assays are surrogate measures of mobilization that are commonly used in the clinical setting; that is they measure associated changes, not HSC content directly. These are total blood leukocyte counts and numbers colony forming cells (CFC) in the blood. The third assay based on phenotypic analysis (expression of a panel of surface markers which define long-term reconstituting HSC), while directly measuring HSC, also detect some progenitor cell populations. Phenotypic enumeration is commonly used to determine HSC mobilization in human patients (a different array of cell-surface markers are used in mice). […]
A) Blood leukocyte counts were measured on a Sysmex KX21 automated haematology analyser (Roche).
B) Colony forming cell assay. […] The number of colony forming cells (CFC) per mL of blood can then been calculated. […]

[3] = system: hematopoietic stem and progenitor cells; experiment: G-CSF mobilization after 8 rounds of cyclophosphamide chemotherapy in wild-type and E-selectin KO mice; format: in vivo; details: mice pre-treated with 8 fortnightly rounds of cyclophosphamide 200 mg/kg, 6 weeks rest, then G-CSF; FIG. 8
Method: Wild-type and E-selectin KO mice were first administered 8 consecutive rounds of chemotherapy. The chemotherapeutic agent used was the alkylating agent cyclophosphamide administered as a single intraperitoneal injection at 200 mg/kg. Mice were given 8 rounds of cyclophosphamide chemotherapy at fortnightly intervals, then left to recover for 6 weeks before administration of G-CSF (total 1 mg/kg as above) and blood collected 3 days later at HSC mobilization. Blood was analyzed for total leukocyte count, Colony forming cells and phenotypic HSC as described above.

Molecule	HSC numbers per femur, E-selectin-/- versus WT mice ([1]; day 7 after single dose 150 mg/kg, FIG. 4)	BrdU incorporation in hematopoietic stem cells, E-selectin knock-out versus wild-type mice ([1]; days 3 and 7 after single dose 150 mg/kg, BrdU in last 17 hours, FIG. 3)	number of phenotypic HSC per mL of mobilized blood, E-selectin KO versus wild-type mice ([2]; FIG. 7C)	number of CFC per mL of mobilized blood, E-selectin KO versus wild-type mice ([2]; blood collected 3 days after first injection, FIG. 7B)	number of functional long-term reconstituting HSC per mL of mobilized blood, E-selectin KO versus wild-type mice ([2]; competitive long-term reconstitution assay)	CFC per mL of peripheral blood, E-selectin KO versus wild-type mice [3]	phenotypic HSC per mL of peripheral blood, E-selectin KO versus wild-type mice [3]
O=c1[nH]cc(F)c(=O)[nH]1 [5FU, 5-fluorouracil]	5 fold	significantly lower					
B1			2.5 fold	2.5 fold	12 fold	5 fold	2.5 fold
